Values of other authors, collected in paper PMC11581309.
Values belong to the substance of their own block, whether it stands above or below them.

Assays:
[1] = target: CDH1 (Mus musculus) (UniProt P09803)
[2] = target: CDH1 (Gallus gallus) (UniProt P08641)
[3] = target: CDH2 (Homo sapiens) (UniProt P19022)
[4] = target: CDH2 (Gallus gallus) (UniProt P10288)
[5] = target: CDH2 (Mus musculus) (UniProt P15116)
[6] = target: CDH1 (Homo sapiens) (UniProt P12830)

Substance: CDH1 (from UniProt P08641)
Kd [2]: 110 µM

Substance: CDH2 (from UniProt P19022)
Kd [3]: 22.1 µM

Substance: CDH2 (from UniProt P10288)
Kd [4]: 20.4 µM

Continued, values first:

Kd [1]: 160 µM
Substance: CDH1 (from UniProt P09803)

Kd [5]: 22.6 µM
Substance: CDH2 (from UniProt P15116)

Kd [6]: 217 µM
Substance: CDH1 (from UniProt P12830)
